In PMC2063517, “Leptospira interrogans Endostatin-Like Outer Membrane Proteins Bind Host Fibronectin, Laminin and Regulators of Complement” (PLoS ONE, 2007):

How the values were obtained:
[1] = molecular target: murine laminin (murine); test: ELISA; 1 µg murine laminin immobilised in microtiter wells, soluble LenA or LenB added in PBS-based binding buffer, detected by anti-polyhistidine; Kd = concentration of Len protein giving half-maximal binding; in some experiments additional NaCl or porcine heparin in the buffer (heparin also preincubated with laminin)
[2] = molecular target: 30-kDa amino-terminal domain of fibronectin (human); test: ELISA; human plasma fibronectin or its proteolytic fragments (70 kDa, 30 kDa NTD, 45 kDa GBD) immobilised in wells, soluble LenA or LenB added, detected by anti-polyhistidine; Kd = concentration of Len protein giving half-maximal binding
[3] = molecular target: murine laminin (murine); test: ELISA; data not shown: laminin immobilised, 1 µM LenB with 1 µM or 4 µM heparin in the binding buffer
[4] = molecular target: human plasma fibronectin (intact) (human); test: ELISA; human plasma fibronectin or its proteolytic fragments (70 kDa, 30 kDa NTD, 45 kDa GBD) immobilised in wells, soluble LenA or LenB added, detected by anti-polyhistidine; Kd = concentration of Len protein giving half-maximal binding; conditions: both partners purified

## recombinant LenA (leptospiral endostatin-like protein A), L. interrogans serovar Lai (from UniProt Q8F863 1-240) (natural protein)
[1]
  binding of 1 µM LenA with 1 µM heparin, percent of the no-heparin control: 26%
  percent reduction of binding at 200 mM NaCl against 150 mM NaCl: 49%
  percent reduction of binding at 500 mM NaCl against 150 mM NaCl: 60%

## recombinant LenB, L. interrogans serovar Bratislava (from UniProt A8SKK5 1-236) (natural protein)
[1]
  Kd: 118 nM
  binding of 0.25 µM LenB with 50 µM heparin (laminin preincubated with 50 µM heparin), percent of the no-heparin control: 25%
  percent inhibition of binding at 200 mM NaCl against 150 mM NaCl: 40%
  percent inhibition of binding at 500 mM NaCl against 150 mM NaCl: 79%
[2]
  Kd: 69.5 nM
[3]
  binding of 1 µM LenB with 1 µM heparin, percent of the no-heparin control: 75%
  binding of 1 µM LenB with 4 µM heparin, percent of the no-heparin control: 55%

B1: recombinant LenB, L. interrogans serovar Bratislava (natural protein)
chain: MFKNIFLIFLTGSVVCILWSCGDKKEEDNSDLLLFLLNSLGSSNSAASTVVTSCKDASFCRTFVATNNGAGYDGNLGGISGADAKCAAAKSSNLTGTYKALLAAMGTREAVFVGDGSTRLVDWVLYPNKQYRRSDGTTTTFTTNANSVVTANLQNSVDVGAEKFYWIGVGNQPATFDWEVSLNCNDWNSNNAVNFAIDGTTSSNEVFAGDGATPGGAFGSHNTGCNIRLNLLCVEQ
notes: Made with the vector pET200 (Invitrogen); source: E. coli, inclusion bodies, purified in 8M urea (MagneHis nickel beads), dialyzed against PBS; dissolved into PBS after 2-3 days at 4°C
[4]
  Kd: 106 nM
